# Measurements as given in the DeepSol protein solubility set.
# Assay: soluble on expression in E. coli; label from the status in PepcDB or PDB records
row,Sequence,soluble on expression in E. coli
1,DISEELDYERGRYLDAMIDNHKYTGKARAIIYGQPELALALAKVCFENGVNVKLIALGAKNKILEEALKEEIKSQREEVLVLDDTDFDTIEKYAKEFNVNLFIGNSDGRRMASRLGIEIIRVGFPIHDRV,not soluble
2,DIVMTQSHKFMSTSVGDRVSITCKASQDVSTAVAWYQQKPGQSPKLLISWASTRHTGVPDRFTGSGSGTDYTLTISSVQAEDLALYYCQQHYTTPLTFGAGTKLELKRADAAPTVSIFPPSSEQLTSGGASVVCFLNNFYPKDINVKWKIDGSERQNGVLNSWTDQDSKDSTYSMSSTLTLTKDEYERHNSYTCEATHKTSTSPIVKSFNRN,soluble
3,DKIAIIGSRRMSVYTKNCVFSLASMLKNAHLCVVSGGALGVDITASMAAMPNTIGIFANGLDQIYPRTNEKIIKQIYENALALSEYEDDYLPKNYDFLLRNRLVIALSKAVVVAQADIKSGSMQSAKLALELNKPLYVLPQRLGESTATNLLLKENKAKLICDFKEFVSEFASID,not soluble
4,DLSKNSDVAYLWCSSNKLTSLNLSGVKGLSVLVCHSNQIAGEEMTKVVNALPTLSPGAGAQSKFVVVDLKDTDEKNICTVKDVEKAKSKNWRVFDFNGDSDNMLPYEGSPTSNLAVDAPTVRIYPNPVGRYALVEIPESLLGQEAALYDMNGVKVYSFAVESLRQNIDLTHLPDGTYFFRLDNYTTKLIKQ,not soluble
5,DNNNTIEEQLNTLEKYSQGRLGVALINTEDNSQITYRGEERFAMASTSKVMAVAAVLKASEKQAGLLDKNITIKKSDLVAYSPITEKHLTTGMTLAELSAATLQYSDNTAMNKILDYLGGPAKVTQFARSINDVTYRLDRKEPELNTAIHGDPRDTTSPIAMAKSLQALTLGDALGQSQRQQLVTWLKGNTTGDNSIKAGLPKHWVVGDKTGSGDYGTTNDIAVIWPENHAPLILVVYFTQQEQNAKYRKDIIAKAAEIVTKEISNSPQTK,soluble
6,DNTQHYRELFLDDIPLMDVRAPVEYHKGAFPNTVNRPLMNDIERQKVGTSYKQHGQQAAIALGHELVCGALKAERLAAWKAFAEANPNGYLYCFRGGLRSQIVQQWLKQDAGIDYPRVIGGYKALRNFLFETTRAAVDECDFVLVGGLTGCGKTEVIAALDNSLDLEGHANHRGSSFGRRATPQPAQIDFENRLAIDILKKRHRGVGQFVLEDEGRIVGSCSLPLELYQGMQGYPLVWLEDAFEQRVERILRDYVIDLRSEFERVVGVEEGFAAFSAYLQKSLAGIVKRLGGERYQRLAAILVQALEEQGRDGSVDTHRGWIEGLLKEYYDPMYAFQRQSKEDRVEFRGNQAEVIGYLR,not soluble
7,DNYVGGIPLTSAHSGTVSGGVYCDSYYGMGDQEAKASNTIEKTFTVPDNANVEWAMLLTNVYCGHMQNNYQGKAKVDFNGKNLGTETLNVPYTYSYNGGNGHVQVNDHVNRVTSDYMMYYDVTGLVKAGKNTAVVKTDPLDSSFDGRIRLVTLVVAYNDGSKKTIWYQVNRGHDADSYYSDDEMNENYIGSTAFQAALPEGSSLTDSKLTLVYQASSDGAYAFNGNALSSGTPQGTFSGSNTWDVKDSLKSSGTNTLTYDRTASFYKSVLGILTAEYTTSSSGDSTDDTPADNTTDNGSAGDTTDDISSDNTTNDTSSDNTTSDVPAGNTTNDTPADNTTDAKFSADLGVQAIKVSHNSAAKAWKNLVNTVNVTVINNGPEKAGSFALELYSEGSLLESKPINGLANGATEAVEFVWKPEDAKNYTLRAVVVPGSTINDANATNNELSKTQEVMHNGYIGDKPLETYLHGTVKGNIIYDYGNSSYVKVSSGDVYTAGHSLSLPEGAIVKYARLYNFWTWSATGSSGVIPSMSLDFAGSSLTPEAEYADQKGWGQYDYPTGTWAYNVTGLVSGSGNYITTVKNTNSDAENSFCIDGIALLVVYEDASGKETQYWINEGCDAVSTMSSSGGLTPDEATVKIAFAGDSIDLGNVDNARLWTTVQSGGHEGIALKFNEMSISGVYDSTPSSNLDIDEARDVTSYLLSQNNEAQIIAPSVTDNSGDYMIPSSAILAVSYKSETTDDTNITDDTNVTDDTNVTDGTNVTDDTNVTDGTNVTNDTNVTNDTNVTNDTNVTNDTNVTNDTNVTNDTNVTDDTNVTDGTNVTDGTNVTIDTNVTIDTNVTIDTNVTDNTNVTDDTNMKDDTNVTLKVNIIPVISLTVSPDSLDFGTVSPGTPSESLPLALKNNGGISIKVTAEVHDQENGPFATGLLLDQNIWSNYSKVLAAESAETSQAQLDLPL,not soluble
8,DQLYALFDAFFDEDLSQSPEQATSLGLDTGKHADARSRLSDRSTAAWLRDRAEPAERIARLKTIDRKALSGDDAINYDTALFNYEARQGTSRFDFGDGARPFVLTQFYGSYISTPSFLDGRHKIASAADADAYLGRMKAFATVLDQETQRAGADAAKGVIPADFIVDKAIAQLQQFRSLPVEKNVLVASAARRAKAYGDYDAKAAAILTGEIHPALDRQIAALQAMRAKAVHDAGIGRLKDGDAFYAALLKIYTTTNKTPEEVHRLGLEEGAEIQARMDEILKKRGLTQGTVGQRMARLNTMPGQVFANTDEGRAELLAYCTERLAKLQPLLPQWFGVMPKTPVVVRRVPAYTEAGSAGAYYERPALDGSRPGAVYINLRDTAERPRWSLATLMHHEGAPGHHFQLALVAESNLPKLRQNMGFSANTEGWALYAEQVAMEMGIYDDGDDLGLLGMYQARLFRASRCVVDTGIHAKGWSREKAIAYMIETGGDPEVRVSREVERYCANPGQACSYKVGHTVWAALRERTKQRLGSKFDIKRFHDTALLVGPAPLTVLEGVLDRWQ,not soluble
9,DRPFKVGDWIRSPDRQIEGTVERIGWRMTSIRTFDKRPLYVPNSVFSNIVVENPSRMLNRRIYEVVGLRYDDADKVPEIITAVREMLKNHKDIDTRQT,not soluble
10,DSDWEDIHYAYFSAICQARKNVYIETPYFIPDESLLKAIKSAALSGVDVRIIFPKIADHKIVNIASYSYFEEILRAGGKVYLYNKGFIHSKVVIIDDKIASAGTANMDLRSFMLNFEVNAFIYDEEVIRVMTDDFFEDLSYCEELNLEVFKNR,not soluble
11,DTDMGLTRRLPPLSPNKEKQPDVEINDRNIMRILVNKNDEIILLKKGATGSQDQIIPVKLSDLRRITKEFIANPTNRADLPEKEKRE,not soluble
12,DYKDDDDKVKLYKTNKYGTLYKSESASFTANTDIITRLTGPFRSMPQSGVLRKGLTIKYDEVMKQDGHVWVGYNTNSGKRVYLPVRTWNESTGELGPLWGTIK,soluble
13,EAEERQRNMINKTHVGLLLIDGQGRIEEINPMAKRYFSLSDSMVRQLQAWSLFDTGNPNATVPLLLKNLTEHQELADITNVETVARRSDGSLFPVLFSLIAVSWKDRRHYLVTLIDIS,not soluble
14,EAISLSFEQRGQRRAILRDLSLGLAKGESLVVLGPSGCGKSTLLNILAGFQKPDQGRVQIDGRTLEGPGGERGVVFQDDALMPWLNALDNVALGLRIRGLGKAERTARARQVLQLVGLQEYAEQSVAQLSGGQRQRLGLARALAVEPDFLLLDEPFGALDALTRERMQVLLLDLWKQTGKGLFLITHSVDEALFLATDLVVMDGPPARIVKRLPVDFARRYAAGETVRSIKADPEFGRLRQALLDEFLDVAEA,not soluble
15,EALYVAGYLALYSKDEGELNITPEIVRSALPPTSKIPINIDHRKDCVVGEVIAIIEDIRGPFFLGIVRCPQLHAVLFEAAHSNFFGNRDSVLSPLERALYLVTNYLPSVSLSSKRLSPNEIPDGNFFTHVALCVVGRRVGTVVNYDCTPESSIEPFRVLSMESKARLLSLVKDYAGLNKVWKVSEDKLAKVLLSTAVNNMLLRDRWDVVAKRRREAGIMGH,soluble
16,EDFAKSIQDFIENGKTLEDFRKDFDKIVAKHGWQYNGGRNWRSRIIYETNLRSSYQAGRYAQLQELKETMPYWEYVHNDAVTYPRVEHMHWDGLILRHDDPWWKTHFPINAWGCQCTVI,not soluble
17,EDKYTDKYDNINLDEILANKRLLVAYVNCVMERGKCSPEGKELKEHLQDAIENGCKKCTENQEKGAYRVIEHLIKNEIEIWRELTAKYDPTGNWRKKYEDRAKAAGIVIPEE,soluble
18,EEKYVTVQPYTSQSKDEIGFEKGVTVEVIRKNLEGWWYIRYLGKEGWAPASYLKKAKD,soluble
19,EEPSSNEIHIGSLVIFPDAYVVSKRDETIELTHREFELLHYLAKHIGQVMTREHLLQTVWGYDYFGDVRTVDVTVRRLREKIEDNPSHPNWIVTRRGVGYYLRNPEQD,soluble
20,EFGYSEMSAIGALIKALPESCALHLANSSVIRYAQLYQVPSTIEVCCNRGTSGIEGSLSTAVGYAAGSDKLNFIVIGDLSFFYDMNALWNINVRPNLRILLLNNGGGEIFHTLPGLDMSGTSHKYITAVHKTSAKGWAEERGFLYQRVENEEQLAEAMKTFTQPEAMEQPVLMEVFSN,not soluble
21,EFVINPNGKSEVCILHEYMQRVLKVRPVYNFFECENPSEPFGASVTIDGVTYGSGTASSKKLAKNKAARATLEILIPDFVKQTSE,soluble
22,EGNITTVYFRSRDITAQKIAEKVLLDNERKLKTVYENSIQFLTVLDLDRKFIWFNKNARDRSPAVFGKDLIVGEVAESYIAKEYRTGFVENFNKAVAGETITYTRKYALNNAPFFLELSLAPVYNNDNTVVGVALTGIN,not soluble
23,EGYEQDFAVLTAEITSKIARVPRLPPDEKKQMVANVEKQLEEARELLEQMDLEVREIPPQSRGMYSNRMRSYKQEMGKLETDFKRSRIA,soluble
24,EKDTIAAEHKQEASVLLNLHRNKINYLIGETMARMTSLSIAIDRPVDIKKMQSILEKTFDSEPRFSGLYFLNAKGDVTASTTELKTKVNLADRSFFIKAKETKKTVISDSYSSRITGQPIFTICVPVLDSKRNVTDYLVAAIQIDYLKNLINLLSPDVYIEVVNQDGKMIFASGQASHAEDQKPVSGYLDDISWNMKVYPNPVTIEELSKS,not soluble
25,EKRVRRTRSLVEVLNVDPETGDLGINEIFNWYPSEDGFLKVGDSHIMQEIMHVRGWDSGQLRGEMENRRKILTYMYEKNMRSYIQVSLVVQAYQSYPKMVMEAIENNILQGMIQDMVA,not soluble
26,ELLKSGKAKDRFEGEENAPVTIVEYASLTCVHCAHFYNDVLPQIRKKYIKTGKVKLIFRDFAFDSRATAGFMLARCAPEDRYFPLIEVLFQKQSEWVWARDAVTPLKKIGLMAGFTDESFNACLKNQSILDEVNASFERGKELGVNATPTFFINGNKYEGAMSVEAFFSVIDSFLKN,not soluble
27,ELQVIQPEKSVSVAAGESATLRCAMTSLIPVGPIMWFRGAGAGRELIYNQKEGHFPRVTTVSELTKRNNLDFSISISNITPADAGTYYCVKFRKGSPDDVEFKSGAGTELSVRAKPSAPVVSG,soluble
28,ENAFKRRRCGVCEVCQQPECGKCKACKDMVKFGGSGRSKQACQERRCPN,soluble
29,ENGRLVELPDNDKSDALQFLATILEAVPSIPAGSNIVEIVLEHEKNSNTSLGFGWACPHARVNFDGDLCCAIGWSPAGIDYGIAGEPLVRLVVMFFVPENQRNTYLKEVSTLARVLKSNPEFQNLEPIGDLDQVRNTLLDMTHQAMSE,not soluble
30,ENSHNKARTSPYPGSKVERSQVPNEKVGWLVEWQDYKPVEYTAVSVLAGPRWADPQISESNFSPKFNEKDGHVERKSKNGLYEIENGRPRNPAGRTGLVGRGLLGRWGPNHAADPIITRWKRDSSGNKIMHPVSGKHILQFVAIKRKDCGEWAIPGGMVDPGEKISATLKREFGEEALNSLQKTSAEKREIEEKLHKLFSQDHLVIYKGYVDDPRNTDNAWMETEAVNYHDETGEIMDNLMLEAGDDAGKVKWVDINDKLKLYASHSQFIKLVAEKRDAHWSEDSEADCHAL,soluble
